Measurements: the nanobody polyreactivity screen of Harvey et al. (2022)

Assay: yeast display, Sf9 membrane polyspecificity reagent, FACS + sequencing; frameworks hold sequencing errors
How it was run: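 Using colony PCR, genes from sorted yeast display clones were amplified, then sequenced on MiSeq at 2 × 250 and filtered by CDR length. The clones had been stained with 10% biotinylated, detergent-solubilized Sf9 membrane reagent for 1 hour at 4 °C and sorted by FACS into low and high (top ~1%) gates on anti-HA and streptavidin fluorescence. Polyreactivity labels come from the gate of origin.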

Sequence | polyreactivity (PSR sort gate)
QVQLVESGGGLVQAGGSLRLSCAASGRIFCFNAMGWYRQAPGKERELVAAISGTGGSTYYADSEKGRFTISRDNAKNTVYLQMNSLKPEDTAVYYCAAFYNYYGQRYYYWGQGTQVTVSS | high polyreactivity
QVQLVESGGGLVQAGGSLRLSCAASGRIFCKYAMGWYIQAPGKERELVAAISRSGASTYYADSVKGRFTISRDNAKNTVYLQMNSLKPEDTAVYYCAAVPPYNYRFRVYYWGQGTQVTVSS | high polyreactivity
QVQLVESGGGLVQAGGSLRLSCAASGRIFDCYAMGWYSQAPGKERELVAAITSRGGSTYYADSVKGRFTISRDNAKNTVYLQMNSLKPEDTAVYYCAKRSTSRGYDYWGQGTQVTVSS | high polyreactivity
QVQLVESGGGLVQAGGSLRLSCAASGRIFDDNAMGWYRQAPGKETELVAAISSSGGSTYYADSVKGRFTISRDNAKNSVYLQMNSLKPEDTAVYYCAKAPGQDTPYPYGYWGQGTQVTVSS | high polyreactivity
QVQLVESGGGLVQAGGSLRLSCAASGRIFDDNTMGWYRQAPGKEREVVAAISVSGGRTYYADSVKGRFTISRDNAKNTVYIQMNSLKPEDTAVYYCNARLGPFWDYRLKNGTHDYWGQGTQVTVAS | high polyreactivity
QVQLVESGGGLVQAGGSLRLSCAASGRIFDDYVMGWYRKAPGKERELVARISVRGGSTYYADSVKGRFTISRDNAKNTVYLQMNSLKPEDTAVYYCNAVFGGWLGPFDYWGQGTQVTVSS | low polyreactivity
QVQLVESGGGLVQAGGSLRLSCAASGRIFDFNAMGWYRQAPGKEREFVAAIRTSGGDSTYYADSVKGRFTISRDNAKTTVYLQMNSLTPEDTAVYYCAKTVWWYYRYPFDYWGQGTQVTVSS | low polyreactivity
QVQLVESGGGLVQAGGSLRLSCAASGRIFDGNAMGWYRKAPGKERELVATITRGGRTNYADSVKGRFTISRDNAKNTVYLQMNSLKPEDTAVYYCNAPIYGRYYDLDYWGQGTQVTVSS | low polyreactivity
QVQLVESGGGLVQAGGSLRLSCAASGRIFDGNAMGWYRQAPGKERELVAAISSSGGSTYYADSVKGRFTISRDNAKNTVYLQMNSLKPEDTAVYYCAYPLRRTWGNYRYGYWGQGTQVTVSS | high polyreactivity
QVQLVESGGGLVQAGGSLRLSCAASGRIFDGYAMGWYRQAPGKERELVAAISNGGGSTYYADSVKGRFTISRDNAKNTVYLQMNSLKPEDTAVYYCAARIFSRYTRNYWGQGTQVTVSS | high polyreactivity
QVQLVESGGGLVQAGGSLRLSCAASGRIFDHNAMGWYRQAPGKERELVAAIDSGTSTNYADSVKGRFTISRDNAKNTVYLQMNSLKPEDTAVYYCARLLGPVRDKYDYDYWGQGTQVTVSS | low polyreactivity
QVQLVESGGGLVQAGGSLRLSCAASGRIFDIYAMGWSRQAPGKERELVAAIDESGGSTYYADSVKGRFTISRDNAKNTVYLQMNSLKPEDTAVDYCATDDTWTIAYGWYWFTYEYWGQGTQVTVSS | low polyreactivity
QVQLVESGGGLVQAGGSLRLSCAASGRIFDIYAMGWYRQAPGKEGELVAAIRLSSGTTYYADSLKGRITISRDYAKNNVYLQMSSVKQEDSAVYYCNAIYRRGRPGYYYWGQGTQVNVSS | high polyreactivity
QVQLVESGGGLVQAGGSLRLSCAASGRIFDIYAMGWYRQAPGKERELVAAIDESGGSTYYADSVKGRFTISRDNAKNTVYLQMNSLKPEDTAVYYCATVDTWTISYGWYCFTYEYWGQCTQVTVSS | low polyreactivity
QVQLVESGGGLVQAGGSLRLSCAASGRIFDIYAMGWYRQAPGKERELVAGITWRAGSTYYADSVKGRFTISRDNAKNTVYLQMNSLKPEDTAVYYCAAEVWVTDPYWGDFYYWGHGTQVTVSS | low polyreactivity
QVQLVESGGGLVQAGGSLRLSCAASGRIFDIYGMGWYRQAPGKERELVAAITSGGSTYYADSVKGRFTISRDNAKNTVYLQMNSLKPEDTAVYYCAADSVLLKDTGYDYWGQGTQVTVSS | low polyreactivity
QVQLVESGGGLVQAGGSLRLSCAASGRIFDKYAMGWYRQAPGKERELVAAITRSGGRTYYADSVKGRFTISRDNAKNTVYLQMNSLKPEDTAVYYCAARYVSRFDWGQGTQVTVSS | high polyreactivity
QVQLVESGGGLVQAGGSLRLSCAASGRIFDLNAMGWYRQAPGKERELVAAISYSGDRTYYADSVKGRFTISRDNAKNTVYLQMNSLKPEDTAVYYCNVRKTWYGYSVTGRYDYWGQGTQVTVSS | low polyreactivity
QVQLVESGGGLVQAGGSLRLSCAASGRIFDPYAMGGYRQAPGKERELVANITLRGGITYYADSVKGRFTISRDNAKNTVYLQMNSLKPEDTAVYDCNADGYPDVGAGTYGYWGQGTQVTVSS | low polyreactivity
QVQLVESGGGLVQAGGSLRLSCAASGRIFDPYAMGWYRQAPGKERELVATITRSGGSTYYADSVKGRFTISRDNAKNTVYLQMNSLKPEDTAVYYCAVGDGFEYDWGQGTQVTVSS | low polyreactivity

Sequence | polyreactivity (PSR sort gate)
QVQLVESGGGLVQAGGSLRLSCAASGRIFDQYAMGWYRQAPGKERELVAAITSGGSTYYADSVKGRFTISRDNAKNTVYLQMNSLKPEDTAVYYCAAEWQWYGYVLYKYYYWGQGTQVTVSS | high polyreactivity
QVQLVESGGGLVQAGGSLRLSCAASGRIFDRNAMGWYRPAPGKERELVAAISRRGGSTYYADSVKGRITISRDNAKNTVYLQMNSLKPEDTAVYYCAARFLYRSVKMDYWGQGTQVTVSS | high polyreactivity
QVQLVESGGGLVQAGGSLRLSCAASGRIFDRNAMGWYRQAPGKERELVAAISWSGGRTYYADSVKGRFTISRDNAKNTVYLQMNSLKPEDTAVYYCAADHYPWWAWEFDYWGQGTQVTVSS | low polyreactivity
QVQLVESGGGLVQAGGSLRLSCAASGRIFDRNAMGWYRQARGKARELVARIDPGDDTNYADSVKGRFTISRDNAKNKVYLQMNSLQPEDTAVYYCATDPDYVLYRTAYYEYDYWGQGTQVTVSS | low polyreactivity
QVQLVESGGGLVQAGGSLRLSCAASGRIFDRYGMGWYRQAPGKERELLAAITSRGGSTYYADSVKGRFTISRDNAKNTVYLQMNSLKPEDTAVYYCAAYGRYGFGRVERYDYWGQGTQVTVSS | high polyreactivity
QVQLVESGGGLVQAGGSLRLSCAASGRIFDSNAMGWYRPAPGKERELVAAISYDGGSTYYADSVKGRFTISRDNAKNTVYLQMNSLKPEDTAVYYCAADDGWYYYYGYDYWGQGTQVTVSS | low polyreactivity
QVQLVESGGGLVQAGGSLRLSCAASGRIFDSNAMGWYRQAPGTEREFVAAITYSSGSTYYRNSVKGRFTISRDNAKNTVYLQMNSLKPEDTAVYYCAAVLYWRTLSSRYDYWGQGTQVTVSS | high polyreactivity
QVQLVESGGGLVQAGGSLRLSCAASGRIFDTNAMGWYRQAPGKERELVAAISSSGGRTYYADSVKGRFTISRDNAKNTVYLQMNSLRPEDTAVYYCARVPITKDQYSHYYYWGQGTQVTVSS | high polyreactivity
QVQLVESGGGLVQAGGSLRLSCAASGRIFDVYAMGWYRQAPGKERELVAAITWSGTSTYYADSVKGRFTISRDNAKNTVYLQMNSLKPEDTAVYYCAAEVAYTDTEYFWYYYWGQGTQVTVSS | high polyreactivity
QVQLVESGGGLVQAGGSLRLSCAASGRIFDYNAMGWYRQAPGKERELVASITQRGDITYYADSVKGRFTISRDNAKNTVYLQMNSLKPEDTAVYYCNADGVRVWVLPYVLYTGDYWGQGTQVTVSS | low polyreactivity
QVQLVESGGGLVQAGGSLRLSCAASGRIFDYYAMGWNRQAPGKERELVAAITWSGGNTYYADSVKGRFTISRDNAKNTVYLQMNSLKPEDTAVYYCAAEYYYLNDIYSEYDYWGQGTQVTVSS | high polyreactivity
QVQLVESGGGLVQAGGSLRLSCAASGRIFDYYAMGWYRQAPGKERELVAAITSSTGSTYYADSVKGRFTISRDNAKNTVYLQMNSLKPEDTAVYYCAAERTYLDRGFDYWGQGTQVTVSS | low polyreactivity
QVQLVESGGGLVQAGGSLRLSCAASGRIFEAYAMGWYRQAPGKERELVAAISGSGGSTYYADSVKGRFTISRDNAKNTVYLQMNSLKPEDTAVYYCAADDYYRVYWGQGTQVTVSS | high polyreactivity
QVQLVESGGGLVQAGGSLRLSCAASGRIFEGYAMGWYRQAPGKERELVAAITGSGGGTYYADSVKGRFTISRDNAKNTVYLQMNSLKPEDTAVYYCATAYSAYQHPYGYWGKGTQVTVSS | low polyreactivity
QVQLVESGGGLVQAGGSLRLSCAASGRIFEGYAMGWYRQAPGKERELVAAITGSGGGTYYADSVKGRFTISRDNAKNTVYLQMNSLKPEDTAVYYCATAYSAYQHPYGYWGQGTQVTVSS | low polyreactivity
QVQLVESGGGLVQAGGSLRLSCAASGRIFEHNAMGWYRQAPGKEREFVAAISSSGGSTYYADSVKGRITISRDNAKNTVYLQMNSLKPVDTAVYYCNAGSTYYERNYWGQGTQVTVSS | low polyreactivity
QVQLVESGGGLVQAGGSLRLSCAASGRIFEINTMGWYRQAPGKERELVAAISRGGGSTYYADSVKGRFTISRDNAKNTVYLQMNSLKPEDTAVYYCAAASYYVEGDYWGQGTQVTVSS | low polyreactivity
QVQLVESGGGLVQAGGSLRLSCAASGRIFEIYAMGWYRQAPGTERELVAPISWRGVSTYYADSVKGRFTISRDNAKNTVYVQMNSLKAEDTAVYYCGPELGWGGFYKDGDASQFDYWGQGTQVTVSS | low polyreactivity
QVQLVESGGGLVQAGGSLRLSCAASGRIFENNAMGWYRQAPGKERELVAAITSSGGRTYYADSVKGRFTISRDNAKNTVYLQMNSLIPEDTAVYYCNAYQYYERYDTYLFRYDYWGQGTQVTVSS | low polyreactivity
QVQLVESGGGLVQAGGSLRLSCAASGRIFESYAMGWYRQAPGKERELVAAISRSGGSTYYADSVKGRFTISRDNAKNTVYLQMNSLKPEDTAVYYCNTYYYHHYDYWGQGTQVTVSS | high polyreactivity
